# In the nanobody polyreactivity screen of Harvey et al. (2022):
# Assay: yeast display, Sf9 membrane polyspecificity reagent, FACS + sequencing; frameworks hold sequencing errors
# How it was run: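 After 36–48 hours of galactose induction, yeast (Saccharomyces cerevisiae BJ5465) displaying a synthetic nanobody library were stained at 4 °C for 1 hour with 10% biotinylated, detergent-solubilized Sf9 membrane reagent. Streptavidin microbeads enriched the stained cells before FACS sorting into low and high (top ~1%) gates on anti-HA and streptavidin fluorescence. Each clone's polyreactivity label reflects its gate of origin.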
row,Sequence,polyreactivity (PSR sort gate)
1,QVQLVESGAGLVQAGGSLRLRCAASRRSFRNYAMGWYRPAPGKEREVVAAIRSGVRTYYADSVKGRFTISRDNAKNTVYLQMNSLKPEDTAVYYCAVATGLLYKSHGYWGQGTQVTVSS,low polyreactivity
2,QVQLVESGAGLVQAGGSLRLSCAASGFIFAGYAMGLYRQAPGKERELFAAISSRGGSTYYADSVKGRFTISRDNAKNPVDLQMNSLKPEDTAVYYCNKYYYGFTPVGYKKMDYWGQGTQVIVSS,low polyreactivity
3,QVQLVESGAGLVQAGGSLRLSCAASGFIFWRNTMGWYRQAPGKERELVAVITRGGSTYYADSVKGRFTISRDNAKNTVYLQMNSLKPVDTAVYYCNADNVVEGYDRRSARASYRYYYWGQGTQVTVSS,low polyreactivity
4,QVQLVESGAGLVQAGGSLRLSCAASGFTFQYYAMGWYRQAPGKERELVATISSTDNTYYADSVKGRFTISRDNAKNTVYLQMNSLKPEDTAVYYCAARPTYRRRQGRGYWGQGTQVTVSS,high polyreactivity
5,QVQLVESGAGLVQAGGSLRLSCAASGFTFWRYVMGTYRPAPGKERELVAGITSGGSTYYADSVKGRFTISRDNAKNTVYLQMNSLKPEDTAVYYCAARSGFRSRHKYDYWGQGTQVSVSS,high polyreactivity
6,QVQLVESGAGLVQAGGSLRLSCAASGFTFYYNAMGWYRQAPGKERELVASISSNGTSTYYADSVKGRFTISRDYAKNTVYLQMNSLKPEDTAVYYCNVDIFDPRTYDYWGQGTQVTVSS,low polyreactivity
7,QVQLVESGAGLVQAGGSLRLSCAASGIIFSGYAMGWYTQAPGKERELVAAISYSGASTYYADSVKGRFTISRDNAKNTVYLQMNSLKPEDTAVYYCAADRRYARYWNGWRYNYWGQGTQVTVSS,high polyreactivity
8,QVQLVESGAGLVQAGGSLRLSCAASGITFSYYSMGWYRQAPGKERELVAVISGSGSTTSYADSVKGRFTISRDNAKNTVYLQMNSLKPEDTAVYYCAADGGWRPEYYYWGQGTQVTVSS,low polyreactivity
9,QVQLVESGAGLVQAGGSLRLSCAASGLIFQSNAMVWYRQAPGKERELVAAISTAGSTNYGDSETGRFTISRDNAKKTVFLQMNSLKREDTAVYSCAAQVSTPYRYPRQILYDYWGQGTQVTVSS,low polyreactivity
10,QVQLVESGAGLVQAGGSLRLSCAASGLTFLQNALGWSRQAPGNERELVAAINIGTNTYADSVKGRFTISRDNAKNTVYLQMNSLKPEDTAVDYCNTDSAPYYWLSDNYDSWGQGTQVTVSS,low polyreactivity
11,QVQLVESGAGLVQAGGSLRLSCAASGLTSTNNAMGWYRQAPGKERELVAAITSGSTTNYADSVKGRFTISRDNAKNTVYLQMNSLKPEDTAVYYCAAQYGVWWRRYYYPEYDYWGQGTQVTVSS,low polyreactivity
12,QVQLVESGAGLVQAGGSLRLSCAASGNIFRFYAMGWYRQAPGKERELVAAISYNGGRTYYADSVKGRFTISRDNAKNTVYLQMNILKPEDTAVYYCNAAGRDDAYDYWGQGTQVTVAS,high polyreactivity
13,QVQLVESGAGLVQAGGSLRLSCAASGRIFHFYAMGWYRQAPGKERELVAAITSRTGNTYYADSVKGRFTISRDNAKNTVYLQMNSLKPEDTAVYYCAAKLVNALLHYRNWNHNNYWGQGTQVTVSS,low polyreactivity
14,QVQLVESGAGLVQAGGSLRLSCAASGRIFNWYVMGWYRQAPGKERELVAAINSGGITKYADSVKGRFTISRDNAKNTVYLQMNSLKPEDTAVYYCAAYYRRYDYDYWGQGTQVTVSS,high polyreactivity
15,QVQLVESGAGLVQAGGSLRLSCAASGRIFTNYVLGWSRQAPGKERELVAAISWTGGRTYYADSVKGRFTISRDYAKNTVYLQMISLKPEDTAVYYCAARARIGTVDYWGQGTQVTVSS,high polyreactivity
16,QVQLVESGAGLVQAGGSLRLSCAASGRTFGRYAMAWYRQAPGKERELVAAINNGGGTYYADSVKGLFTISRDNAKNTVYLLINSLYPEDTAVYYCAAATRKRVGSYYYWGQGTQVTVSS,high polyreactivity
17,QVQLVESGAGLVQAGGSLRLSCAASGRTFVDNTMGLYTHAPGKERELVASISSGGSTYYADSVKGRFTISRDNAKNTVYLQMNRLKPEDTAVYDCATGDTLFVFYPDYEYWGQGTQVTVSS,low polyreactivity
18,QVQLVESGAGLVQAGGSLRLSCAASGRTFWWYAMGWDRQAPGKERELVADINGSGGSTYYADSVKGRFTISRDNAKNTVYLQMICLKPEDTAVYFCAADYYRYIHSVVYSIYDYWGQGTQVTVSS,low polyreactivity
19,QVQLVESGAGLVQAGGSLRLSCAASGRTIRSYAMGWYRQATGKERELVAAISSGGRTYYADSVKGRFTISRDNAKNNVYLQMNSLKPEDTAVYYCAVRYRVYIFQYGYWGQGTQVTVSS,high polyreactivity
20,QVQLVESGAGLVQAGGSLRLSCAASGSIFAWYGMGWYRQAPGQERELVAAISTAGSTNYADSVKGRFTISRDNAKNTVYLQMNSLKPEDTAVYYCAKISSWYYPERFDYWGQGTQVTVSS,low polyreactivity
21,QVQLVESGAGLVQAGGSLRLSCAASGSIFDVNAMGWYRQAPGKERELVAAISQRGTRTYYADSVKGRFTISRDNAKNTVYLQMNRLKPEDTAVYYFNRGGWRKYDSWGQGTQVTVSS,high polyreactivity
22,QVQLVESGAGLVQAGGSLRLSCAASGSIFLYNDMGWYRQAPGKERELVAAITSDGSTNYADSVKGRFTISRDNAMNTVYLQMNSLKPEDNAVYYCAADALWFYLNWYYGGTAYGYWGQCTQVTVSS,low polyreactivity

row,Sequence,polyreactivity (PSR sort gate)
1,QVQLVESGAGLVQAGGSLRLSCAASGSIFRVYAMGWYRQAPGKERELVAAISQSADSTYYADSVKGRFTILRDNAKYTVYLQMNSLKPEDTAVYYCAAEYPYIYRFDYWGQGTQVTVSS,low polyreactivity
2,QVQLVESGAGLVQAGGSLRLSCAASGSIFYPYAMGWYRQAPGKERELVAAITYSGGSTYADSVKGRFTISRDNAKNTVYLQMNSLKPEDTAVYYCAARYIIHVGSWYDYWGQGTQVTVSS,high polyreactivity
3,QVQLVESGAGLVQAGGSLRLSCAASGSTFEVYAMGWYRQAPGKVMELVADISHIGGSTYSADSVMGRFTISRDNAKNTVYLQLNSLKPEDTAVYYCNAYTVYAYDYWGQGTQVTVSS,low polyreactivity
4,QVQLVESGAGLVQAGGSLRLSCAASGSTFWYYAMGLYRQAPGKERELVAAITRDGNTYYADSVKGRFTISRDNAMNSFYLQMNSLKREDTAVYYCAAGFYLLGKYDYWGQGTQVTVSS,high polyreactivity
5,QVQLVESGAGLVQAGGSLRLSCAASGSTFYPYAMGWYRQAPGKERELVAAISWSGGSTYYADSVKGRFTISRDNAKNTVYLQMNSLKPEDTAVYYCAAEYYYIAYTMDYWGQGTQVTVSS,high polyreactivity
6,QVQLVESGAGLVQAGGSLRLSCAASGSTLVYNDMGWYRQAPGKDREFVAAIRSNDGSTYYADSVKGRFTISRDNAKNTVYLQMNSLKPEDTAVYYCAKDSRNVYWDYGYWGQGTQVTVSS,low polyreactivity
7,QVQLVESGAGLVQAGGSLRLSCAPSGRTFDYYAMGWYRQAPGKERELVADITKDGGSTYYADSVKGRFTISRDNAKNSVYLQMISLKPEDTAVYYCAADGPPQYYDPIHYDYWGQGTQVTVSS,low polyreactivity
8,QVQLVESGAGLVQAGGSLRLSCAPSGRTFWGKVMGWYRQAPGKERELVAAITGRVGSTRYADSVKGRFTISRDNAKNTVFLQMNSLKPEDTAVYYCNADDYELYDYWGQGTQVTVSS,low polyreactivity
9,QVQLVESGAGLVQAGGSLRLSCAPSGSILVNPIGWYRQAPGKEREFVAAISSGGSTKYADSVKGRFTISRDNAKNTVYLQMNSLKPEATAVYYCNARRRGAGGYDYWGQVTQVTVSS,high polyreactivity
10,QVQLVESGAGLVQAGGSLRLSWAASGFTFAQNAMGWYTQAPGKERELVAAISRRGGSTYYADSVKGRFTISRDNAKNTVYLQMNSLKPEDTAVYYCDTAGTYTGGEGYWGQGTQVTVSS,high polyreactivity
11,QVQLVESGAGLVQAGGSLRLSWAASGRIFTGNGMGWYRQAPGKEMELVAGIRNGGGRTYYADSVKGRFTISRDNAKNTVYLKMNSLKPEDTAVYYCAVRIYVRNSPGERLDKYDYWGQGTQVTVSS,high polyreactivity
12,QVQLVESGAGLVQAGGSLRLSWAPSGITFLYYAMGLYRQAPGTEMELVATISISGGSTYYADSVKGRFTISRDNAKYTVYLQMTSLQPEESAVYYCAADDSVVTYSYDTWLVDYDYWGQATQVTVSS,low polyreactivity
13,QVQLVESGAGLVQAGGSLRLTCAASGFIFGYNARGWYRPAPGKERELVAAIRYRGVSTYYADSVKGRFTISRDNAKNTFYLQMNSLKPVETAVYYCNARTRVKTTQSYDRNYYYWGQGTQVTVSS,high polyreactivity
14,QVQLVESGAGLVQAGGSLSLSCAASGSIFGYYTMGWYRQAPGKERELVAAISRSGTSTFYADSVKGRFTISRDNAKNTVYLQMNSLKQEDTAVYYCNAVGSGYRSWYDYWGQGTKVTVSS,high polyreactivity
15,QVQLVESGAGLVQAGVSLRLSCAASGRTFPYYAMGWYRQAPGKERELVARITYSGGSTYADSVKGRFPISRDNAKNTVYLQMNSLKPEDTAVYFCAAQYYAYLLDGYHRYDYWGLGTQVTVSS,high polyreactivity
16,QVQLVESGAGLVQAGVSLRLSCAASGRTFRSNAMGWYRQAPGKERELVAAISWSGGSTYYADSVKGRFTISRDNAKNTVYLQMNSLKPEDTAVYDCAVGGSGYGRFGGGYARDYWGQGTLVTVSS,high polyreactivity
17,QVQLVESGAGLVQARGSLRISCAASGSIFGRYAMGWYRQAPRKERELVASIYSTGGRTYYADSVKGRFTISRDNAKNTVYLQMNSLKPEDTAVYYCAAKFYEYSTAGTQWIRYYYWGQGTQVTVSS,high polyreactivity
18,QVQLVESGAGLVQARGSLRLSCAASGSIFLSYVMGWYRQAPGKERELVAAISKRGGRTYYADSVKGRFTISRDNAKNTVYLQMNSLKPEDTAVYYCNAVTQRESEEGDYWGQGTQVTVSS,high polyreactivity
19,QVQLVESGAGLVQARGSLRLSCAASGYTFLGYAMGWYRQAPGKERELVAAINRSGSSTYYADSVKGRFTISRDNAKNTVYLQMNSLKPEDTAVYYCNARSGNRYGPRYDYWGQGTQVTVSS,high polyreactivity
20,QVQLVESGAGVGQAGGSLRLSCAASGSIFTPYAMGWYRPAPGKERELVAGITSGGNTNYADSVKGRFTISRDNAKNTVYLQMNSLKPEDTAVYYCAARYIYYYAYGYNYWGQGTKVTVSS,high polyreactivity
21,QVQLVESGAGVVQAGGSLRLSCAASGFTLHSYAMGWYRQAPGKERELVAAITRSGGGTYYADSVKGRFTISRDNAKKTVYLQMNSLKPEDTAVYYCAARFGGQYQHDYWGQGTQVTVSS,high polyreactivity
